{"source": "patent US20230183291A1", "about": "“ANTI-INFECTIVE BICYCLIC PEPTIDE LIGANDS” (priority 2020, published 2023)", "key": {"[1]": {"target": "ACE2 protein (Homo sapiens (Human)), Q9BYF1", "sequence (Q9BYF1 18-740 limits assumed)": "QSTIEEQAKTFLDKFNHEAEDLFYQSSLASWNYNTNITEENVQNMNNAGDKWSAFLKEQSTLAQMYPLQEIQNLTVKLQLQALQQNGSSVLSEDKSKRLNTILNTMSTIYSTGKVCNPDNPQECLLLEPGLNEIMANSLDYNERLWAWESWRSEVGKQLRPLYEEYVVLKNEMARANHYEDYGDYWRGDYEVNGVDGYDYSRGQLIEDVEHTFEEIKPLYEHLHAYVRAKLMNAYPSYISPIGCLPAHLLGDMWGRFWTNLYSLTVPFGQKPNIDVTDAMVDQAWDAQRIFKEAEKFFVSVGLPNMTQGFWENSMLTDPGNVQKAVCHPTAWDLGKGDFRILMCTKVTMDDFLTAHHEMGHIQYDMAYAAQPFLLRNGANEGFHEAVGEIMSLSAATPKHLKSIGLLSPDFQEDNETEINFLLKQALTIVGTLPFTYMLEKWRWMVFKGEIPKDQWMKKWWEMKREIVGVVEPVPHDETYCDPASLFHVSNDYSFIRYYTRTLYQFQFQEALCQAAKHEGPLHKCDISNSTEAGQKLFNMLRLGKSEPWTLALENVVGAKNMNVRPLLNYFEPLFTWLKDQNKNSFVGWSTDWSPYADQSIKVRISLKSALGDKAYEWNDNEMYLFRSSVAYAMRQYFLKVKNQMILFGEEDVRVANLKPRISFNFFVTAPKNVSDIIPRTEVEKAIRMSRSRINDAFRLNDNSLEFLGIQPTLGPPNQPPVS", "test": "fluorescence polarisation direct binding, 1 nM fluorescein tracer, ACE2 titrated"}, "[2]": {"target": "Biotinylated Human ACE2, His, Avitag protein (ACROBiosystems, AC2-H82E6) (human), Q9BYF1", "sequence (Q9BYF1 18-740 limits assumed)": "as above", "test": "SPR single cycle kinetics, ACE2 captured on CAP chip, peptide analyte; geometric mean"}}, "note": "Numbered stars: 1 amine (or outer) side, 2 acyl side, 3 side chain; on linkers, the order of the positions; unused ones are H or OH. Bridge positions count the residues as written; N and C are the ends. Square brackets hold non-standard residues; d marks the D form. Primed or numbered codes have the meaning given here. Ends that are not written are not given here. Arg(Me)′ = delta-N-methyl arginine, CN(CCC[C@H](N[*:1])C(=O)[*:2])C(=N)N; TATA = O=C(CC[*:1])N1CN(C(=O)CC[*:2])CN(C(=O)CC[*:3])C1; 1Nal = N[C@@H](Cc1cccc2ccccc12)C(=O)O; 2Nal = N[C@@H](Cc1ccc2ccccc2c1)C(=O)O; hArg = N=C(N)NCCCC[C@H](N)C(=O)O; Aib = CC(C)(N)C(=O)O; Sar = CNCC(=O)O", "data": [{"binder": "ACPSQYKCWRGKCA[Sar][Sar][Sar][Sar][Sar][Sar]K(fluorescein) (linker 2-8-13 via TATA)", "note": "[BCY15421]", "values": [{"measurement": "Kd", "setting": "[1]", "value": 134, "unit": "nM"}]}, {"binder": "ACTRPWCHSLLPRATCA[Sar][Sar][Sar][Sar][Sar][Sar]K(fluorescein) (linker 2-7-16 via TATA)", "note": "[BCY15285]", "values": [{"measurement": "Kd", "setting": "[1]", "value": 157, "unit": "nM"}]}, {"binder": "ACNAVLCSWA[Arg(Me)′]ANSFCA[Sar][Sar][Sar][Sar][Sar][Sar]K(fluorescein) (linker 2-7-16 via TATA)", "note": "[BCY16863]", "values": [{"measurement": "Kd", "setting": "[2]", "value": 3.5, "unit": "nM"}]}, {"binder": "ACNAVLCS[1Nal]ARANSFCA[Sar][Sar][Sar][Sar][Sar][Sar]K(fluorescein) (linker 2-7-16 via TATA)", "note": "[BCY16866]", "values": [{"measurement": "Kd", "setting": "[1]", "value": 2.6, "unit": "nM"}, {"measurement": "Kd", "setting": "[2]", "value": 2.1, "unit": "nM"}]}, {"binder": "ACAPILCRWAERQGYCA[Sar][Sar][Sar][Sar][Sar][Sar]K(fluorescein) (linker 2-7-16 via TATA)", "note": "[BCY15419]", "values": [{"measurement": "Kd", "setting": "[1]", "value": 20.4, "unit": "nM"}]}, {"binder": "ACNAVLCSW[Aib]RANSFCA[Sar][Sar][Sar][Sar][Sar][Sar]K(fluorescein) (linker 2-7-16 via TATA)", "note": "[BCY16872]", "values": [{"measurement": "Kd", "setting": "[1]", "value": 2.9, "unit": "nM"}, {"measurement": "Kd", "setting": "[2]", "value": 8.9, "unit": "nM"}]}, {"binder": "ACLELYQCWRGKCA[Sar][Sar][Sar][Sar][Sar][Sar]K(fluorescein) (linker 2-8-13 via TATA)", "note": "[BCY15420]", "values": [{"measurement": "Kd", "setting": "[1]", "value": 98.3, "unit": "nM"}]}, {"binder": "ACVRSHCSSLLPRIHCA[Sar][Sar][Sar][Sar][Sar][Sar]K(fluorescein) (linker 2-7-16 via TATA)", "note": "[BCY15283]", "values": [{"measurement": "Kd", "setting": "[1]", "value": 21.9, "unit": "nM"}]}, {"binder": "ACLEVYKCWRGKCA[Sar][Sar][Sar][Sar][Sar][Sar]K(fluorescein) (linker 2-8-13 via TATA)", "note": "[BCY15422]", "values": [{"measurement": "Kd", "setting": "[1]", "value": 130, "unit": "nM"}]}, {"binder": "ACNAVLCS[2Nal]ARANSFCA[Sar][Sar][Sar][Sar][Sar][Sar]K(fluorescein) (linker 2-7-16 via TATA)", "note": "[BCY16867]", "values": [{"measurement": "Kd", "setting": "[1]", "value": 50.7, "unit": "nM"}]}, {"binder": "ACNAVLCSWARANSFCA[Sar][Sar][Sar][Sar][Sar][Sar]K(fluorescein) (linker 2-7-16 via TATA)", "note": "[BCY15423]", "values": [{"measurement": "Kd", "setting": "[1]", "value": 5.53, "unit": "nM"}, {"measurement": "Kd", "setting": "[2]", "value": 3.4, "unit": "nM"}]}, {"binder": "ACAN[Aib]VLCSWARANSFCA[Sar][Sar][Sar][Sar][Sar][Sar]K(fluorescein) (linker 2-8-17 via TATA)", "note": "[BCY16871]", "values": [{"measurement": "Kd", "setting": "[1]", "value": 5.8, "unit": "nM"}, {"measurement": "Kd", "setting": "[2]", "value": 7.7, "unit": "nM"}]}, {"binder": "ACGRQFCHTLMPRHLCA[Sar][Sar][Sar][Sar][Sar][Sar]K(fluorescein) (linker 2-7-16 via TATA)", "note": "[BCY15284]", "values": [{"measurement": "Kd", "setting": "[1]", "value": 65.5, "unit": "nM"}]}, {"binder": "ACHKFPCRDPQQYLFCA[Sar][Sar][Sar][Sar][Sar][Sar]K(fluorescein) (linker 2-7-16 via TATA)", "note": "[BCY15288]", "values": [{"measurement": "Kd", "setting": "[1]", "value": 225, "unit": "nM"}]}, {"binder": "ACNAVLCSWA[hArg]ANSFCA[Sar][Sar][Sar][Sar][Sar][Sar]K(fluorescein) (linker 2-7-16 via TATA)", "note": "[BCY16874]", "values": [{"measurement": "Kd", "setting": "[1]", "value": 62, "unit": "nM"}, {"measurement": "Kd", "setting": "[2]", "value": 4.1, "unit": "nM"}]}]}
